Assay results as given in patent publication US20190382482A1 (GlaxoSmithKline, published 2019).
Blank lines part the entries; values can stand above or below the binder they belong to.

Columns and labels:
[1] = biological target: T1, Human LAG-3 on cells (human, UniProt P18627 23-525); experiment: Flow cytometry (MFI dose response) on human LAG-3 expressing EL4 cells
T1 construct: whole, on cells; also called human LAG-3 expressing EL4 cells
T1 sequence (looked up): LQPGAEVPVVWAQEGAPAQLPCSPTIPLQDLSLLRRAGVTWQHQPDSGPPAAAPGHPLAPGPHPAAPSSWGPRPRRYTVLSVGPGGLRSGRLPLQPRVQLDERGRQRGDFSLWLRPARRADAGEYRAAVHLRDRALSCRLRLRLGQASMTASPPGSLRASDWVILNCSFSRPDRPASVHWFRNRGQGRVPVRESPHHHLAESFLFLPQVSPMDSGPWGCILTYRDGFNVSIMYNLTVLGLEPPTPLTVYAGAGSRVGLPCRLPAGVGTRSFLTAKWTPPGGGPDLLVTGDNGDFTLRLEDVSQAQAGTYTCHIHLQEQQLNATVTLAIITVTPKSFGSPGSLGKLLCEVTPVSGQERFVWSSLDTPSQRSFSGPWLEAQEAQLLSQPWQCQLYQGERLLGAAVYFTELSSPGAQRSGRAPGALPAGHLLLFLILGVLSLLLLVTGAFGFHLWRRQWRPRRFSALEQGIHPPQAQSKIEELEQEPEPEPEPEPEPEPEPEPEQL
Procedure: Human LAG-3 expressing EL4 cells were incubated with either IMP731, H5L7WT or H5L7BW Alexa647-conjugated antibodies at varying concentrations of up to 50 μg/ml for 30 minutes at room temperature. Cells were washed with FACS buffer (PBS+0.5% BSA) to remove unbound antibody.
EL4 cells and CD3⁺ T cells were analysed by FACS using a Beckman Coulter FC 500 flow cytometer. FACS raw data were analysed using CXP Analysis software (Beckman Coulter). The data was initially plotted on a forward-scatter versus side-scatter plot and the population of cells of interest were gated. This gated population was then plotted as a histogram displaying fluorescence intensity and the mean fluorescence intensity (MFI) calculated. MFI values were then plotted in GraphPad Prism 5 software to generate dose response curves.

[2] = biological target: T2, Recombinant human LAG-3 ECD-His6 (human, UniProt P18627 23-433); experiment: SPR Biacore T100, Anova comparison of KD, 3 runs
T2 construct: Entry holds the ECD with the C-terminal His6; also called LAG-3-His; recombinant human LAG-3-His
T2 sequence: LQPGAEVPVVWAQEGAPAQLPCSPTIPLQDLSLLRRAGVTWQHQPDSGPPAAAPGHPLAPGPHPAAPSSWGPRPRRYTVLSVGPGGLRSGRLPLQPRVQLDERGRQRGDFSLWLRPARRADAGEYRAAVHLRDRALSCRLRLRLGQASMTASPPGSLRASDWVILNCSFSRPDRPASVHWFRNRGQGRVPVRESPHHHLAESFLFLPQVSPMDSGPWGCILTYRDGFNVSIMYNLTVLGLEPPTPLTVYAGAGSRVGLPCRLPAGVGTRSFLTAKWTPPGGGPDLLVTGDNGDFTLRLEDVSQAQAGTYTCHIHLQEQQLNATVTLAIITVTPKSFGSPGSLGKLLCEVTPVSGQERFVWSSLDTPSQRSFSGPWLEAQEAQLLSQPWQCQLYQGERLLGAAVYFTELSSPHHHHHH
Procedure: (§1) Wild type fucosylated and afucosylated antibodies were compared for their ability to bind to recombinant human LAG-3 ECD with a C-terminal His6 (SEQ ID NO:51) using the Biacore™ T100 (GE Healthcare™). Protein A was immobilised on a CM5 chip by primary amine coupling. This surface was then used to capture the humanised antibodies. Recombinant human LAG-3 ECD-His6 was then passed over the captured antibodies at 32, 8, 2, 0.5 and 0.125 nM and regeneration was carried out using 50 mM NaOH. The binding curves were double referenced with buffer injection (i.e. 0 nM) and the data was fitted to the T100 analysis software using the 1:1 model. The run was carried out at 25° C., using HBS-EP as the running buffer.
(§2) In order to investigate the statistical significance of this kinetic data, this experiment was repeated 3 times with the same batch of the four antibodies and the chimeric control. KD, ka and kd parameters were each log (base 10) transformed prior to separate statistical analyses. For each parameter, a mixed model analysis of variance (‘Anova’) was performed on transformed data, including terms for Run (random block effect) and Antibody.

[3] = biological target: T2, Recombinant human LAG-3 ECD-His6; experiment: SPR Biacore T100, Anova comparison of kd, 3 runs
Procedure: as §1, §2

- EC50 (read off the curve) [1]: ~20 ng/mL
- KD ratio against H5L7 [2]: 1.05
- kd ratio against H5L7 [3]: 1.12
B1: H5L7BW (antibody, human IgG1, kappa, V domains shown)
VH: QVQLQESGPGLVKPSETLSLTCTVSGFSLTAYGVNWIRQPPGKGLEWIGMIWDDGSTDYDSALKSRVTISVDTSKNQFSLKLSSVTAADTAVYYCAREGDVAFDYWGQGTLVTVSS
VL: DIQMTQSPSSLSASVGDRVTITCKSSQSLLNPSNQKNYLAWYQQKPGKAPKLLVYFASTRDSGVPSRFSGSGSGTDFTLTISSLQPEDFATYYCLQHFGTPPTFGQGTKLEIKR
modifications: afucosylated Fc glycan (expressed in BioWa Potelligent FUT8 knock-out CHO cell line)
notes: differs only by lack of fucose; also called afucosylated H5L7BW; afucosylated H5L7

- EC50 (read off the curve) [1]: ~20 ng/mL
- KD ratio against IMP731 [2]: 0.0774
- fold decrease of KD against IMP731 [2]: 10 fold
- fold decrease of kd against IMP731 [3]: ~10 fold
- kd ratio against IMP731 [3]: 0.155
B2: H5L7 (antibody, human IgG1, kappa, V domains shown)
VH: B1 VH
VL: B1 VL
notes: wild type fucosylated form; also called H5L7WT; fucosylated H5L7

- EC50 (read off the curve) [1]: ~10 ng/mL
B3: IMP731 (antibody, human IgG1, kappa, V domains shown)
VH: QVQLKESGPGLVAPSQSLSITCTVSGFSLTAYGVNWVRQPPGKGLEWLGMIWDDGSTDYNSALKSRLSISKDNSKSQVFLKMNSLQTDDTARYYCAREGDVAFDYWGQGTTLTVSS
VL: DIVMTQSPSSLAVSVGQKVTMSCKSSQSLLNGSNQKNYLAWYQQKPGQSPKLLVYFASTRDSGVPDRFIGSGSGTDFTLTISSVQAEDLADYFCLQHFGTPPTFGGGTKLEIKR
notes: Chimeric anti-LAG-3 antibody, parent of the humanised variants; also called chimeric IMP731; chimeric control
